Data on 3 molecules can be found in patent publication US20220195407, “OPTIMIZATION OF ENGINEERED MEGANUCLEASES FOR RECOGNITION SEQUENCES” (Precision BioSciences, Inc., published 2022).

Changes are numbered by the printed parent chain.

Assay in all cases: cell_activity; CHO iGFFP reporter
Data set [1] deals with T1, LOX 3-4m.684 (artificial (I-CreI derived)).
T1 chain: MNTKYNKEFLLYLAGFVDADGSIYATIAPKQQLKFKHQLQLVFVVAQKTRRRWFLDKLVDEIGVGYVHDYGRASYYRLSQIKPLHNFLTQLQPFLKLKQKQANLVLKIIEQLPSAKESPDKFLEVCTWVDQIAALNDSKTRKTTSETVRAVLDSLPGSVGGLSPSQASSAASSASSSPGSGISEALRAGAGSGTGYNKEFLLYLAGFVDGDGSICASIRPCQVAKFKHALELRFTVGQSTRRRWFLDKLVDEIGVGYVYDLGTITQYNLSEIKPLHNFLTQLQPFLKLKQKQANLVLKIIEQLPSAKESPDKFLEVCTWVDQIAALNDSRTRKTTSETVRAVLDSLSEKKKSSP
From the text:
(§1) A CHO cell reporter system (see WO/2012/167192, FIG. 3) was used to determine whether the engineered meganucleases generated in these studies could recognize and cleave the modified LOX 3-4 recognition sequences in Table 87. To perform the assay, a pair of CHO cell reporter lines were produced, which carried a non-functional Green Fluorescent Protein (GFP) gene expression cassette integrated into the genome of the cell. The GFP gene in each cell line was interrupted by a pair of recognition sequences such that intracellular cleavage of either recognition sequence by a meganuclease would stimulate a homologous recombination event resulting in a functional GFP gene. In both cell lines, one of the recognition sequences was derived from the LOX 3-4 recognition sequence (i.e., those sequences disclosed in Table 87), and the second recognition sequence was specifically recognized by a control meganuclease called “CHO 23/24.” CHO reporter cells comprising a recognition sequence derived from the LOX 3-4 recognition sequence and the CHO 23/24 recognition sequence are referred to herein as “test cells.”
(§2) Novel engineered meganucleases derived from the LOX 3-4x.109 meganuclease were prepared by making amino acid substitutions at one or more positions in the first subunit and one or more positions in the second subunit. These engineered meganucleases were then evaluated for cleavage of the LOX 3-4 recognition sequence modified to have an ACAA center sequence (SEQ ID NO: 9) in the CHO reporter assay according to Example 1.

For data set [2], the target named is T2, LOX 3-4m.750 (artificial (I-CreI derived)).
T2 chain: T1 chain with R50C, S239A, T263R, T265S
Excerpt: as §1, §2

In data set [3] the target is T3, LOX 3-4m.765 (artificial (I-CreI derived)).
T3 chain: T1 chain with K139R, T263R, T265A
Excerpt: as §1, §2

Data set [4] addresses T4, LOX 3-4m.1329 (artificial (I-CreI derived)).
T4 chain: T1 chain with K48H, S239K, R241C, T263G, I264R, T265S, E271Q, R330K
Excerpt: as §1
(§3) Novel engineered meganucleases derived from the LOX 3-4x.109 meganuclease were prepared by making amino acid substitutions at one or more positions in the first subunit and one or more positions in the second subunit. These engineered meganucleases were then evaluated for cleavage of the LOX 3-4 recognition sequence modified to have an ATAG center sequence (SEQ ID NO: 184) in the CHO reporter assay according to Example 1.

In data set [5] the target is T5, LOX 3-4m.1415 (artificial (I-CreI derived)).
T5 chain: T1 chain with Q80E, S239K, R241C, V250A, T263G, I264R, T265S, E271Q
Excerpt: as §1, §3

The target in data set [6] is T6, LOX 3-4m.1353 (artificial (I-CreI derived)).
T6 chain: T1 chain with K227R, S239K, R241C, V250A, T263S, I264R, T265S, E271Q
Excerpt: as §1, §3

Data set [7] addresses T7, LOX 3-4m.1345 (artificial (I-CreI derived)).
T7 chain: T1 chain with R72G, S239K, R241C, T263G, I264R, T265S, E271Q, R330K
Excerpt: as §1, §3

Data set [8] deals with T8, LOX 3-4m.1237 (artificial (I-CreI derived)).
T8 chain: T1 chain with K48A, R50I, S239K, R241E, T263G, I264V, T265A, E271Q, R330K
Excerpt: as §1
(§4) Novel engineered meganucleases derived from the LOX 3-4x.109 meganuclease were prepared by making amino acid substitutions at one or more positions in the first subunit and one or more positions in the second subunit. These engineered meganucleases were then evaluated for cleavage of the LOX 3-4 recognition sequence modified to have an ATAA center sequence (SEQ ID NO: 157) in the CHO reporter assay according to Example 1.

Data set [9] concerns the target T9, LOX 3-4m.1236 (artificial (I-CreI derived)).
T9 chain: T1 chain with K48H, R50T, S239A, R241K, T263Q, I264V, T265A, E271Q
Excerpt: as §1, §4

In data set [10] the target is T10, LOX 3-4m.1293 (artificial (I-CreI derived)).
T10 chain: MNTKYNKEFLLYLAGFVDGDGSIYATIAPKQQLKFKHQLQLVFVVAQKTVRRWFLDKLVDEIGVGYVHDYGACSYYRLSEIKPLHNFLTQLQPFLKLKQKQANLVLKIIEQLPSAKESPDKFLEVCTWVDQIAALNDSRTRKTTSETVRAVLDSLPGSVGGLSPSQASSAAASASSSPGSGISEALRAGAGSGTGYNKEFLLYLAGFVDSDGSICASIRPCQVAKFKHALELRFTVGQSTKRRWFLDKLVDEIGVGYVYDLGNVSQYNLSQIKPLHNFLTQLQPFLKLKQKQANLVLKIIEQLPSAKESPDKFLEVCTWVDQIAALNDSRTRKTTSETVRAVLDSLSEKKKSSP
Excerpt: as §1, §4

Data set [11] addresses T11, LOX 3-4m.1269 (artificial (I-CreI derived)).
T11 chain: T1 chain with K48H, R72H, A73C, K139R, S239T, T263G, T265S
Excerpt: as §1, §4

B1: LOX 3-4 ACAA (dsDNA)
DNA 1: GTATAGCATACAATATACGAAG
DNA 2: CTTCGTATATTGTATGCTATAC
In the case of B1, the activity in data set [1] came out at 9.14 % GFP; in [2], 9.32 % GFP; in data set [3] it was 9.32 % GFP.

B2: LOX 3-4 ATAG (dsDNA)
DNA 1: GTATAGCATATAGTATACGAAG
DNA 2: CTTCGTATACTATATGCTATAC
In the case of B2, the activity in data set [4] is 15.5 % GFP; in data set [5] it was 13.1 % GFP; in data set [6], 15.6 % GFP; in data set [7], 14 % GFP.

B3: LOX 3-4 ATAA (dsDNA)
DNA 1: GTATAGCATATAATATACGAAG
DNA 2: CTTCGTATATTATATGCTATAC
Consider B3, for which the activity was 8.13 % GFP in [8], 9.28 % GFP in data set [9], 8 % GFP in [10] and 8.64 % GFP in data set [11].
